# Results from publication PMC3302947.
# Biological target: Vif(155–176) (PPLP peptide) (HIV-1)
# Test: AUC
substance,measurement,value
Vif(155–176) (PPLP peptide),stoichiometry N,2
